# Experimental data from publication PMC5036196.
# Target: yeast histone H2A-H2B dimer (Saccharomyces cerevisiae) (UniProt P04911)
# Experiment: ITC; ITC200 at 20 °C; 0.5 mM ARB2 or mutant in the injector, 0.2 mM H2A/B or 0.25 mM H3/4 in the sample cell; 25 mM Tris-HCl pH 7.5, 200 mM NaCl; single-site fitting model
Binder,Kd [µM],dH [kcal/mol],stoichiometry N
"ARB2-M1 (residues Gln463, His467 and Asp471 mutated to Ala) (domain or fragment) LQKAIRAQQQAYLSAEFNFVTLPLVSMDLPDNTVLCTPNISESNTIIIVVHDTSDIWAKRNVISGTIDLSSSVIIDNSLDFIKWGLDRKYGIIDVNIPLTLFEPDNYSGMITSQEVLIYLWDNYIKYFPSVAKIAFIGIGDSYSGIVHLLGHRDTRAVTKTVINFLGDKQLKPLVPLVDETLSEWYFKNSLIFSNNSHQCWKENESRKPRKKFGRVLRCDTDGLNNIIEERFEEATDFILDS",20.4,-6.86,0.77
ARB2 domain of Hda1 (Hda1^457–698) (domain or fragment) LQKAIRQQQQHYLSDEFNFVTLPLVSMDLPDNTVLCTPNISESNTIIIVVHDTSDIWAKRNVISGTIDLSSSVIIDNSLDFIKWGLDRKYGIIDVNIPLTLFEPDNYSGMITSQEVLIYLWDNYIKYFPSVAKIAFIGIGDSYSGIVHLLGHRDTRAVTKTVINFLGDKQLKPLVPLVDETLSEWYFKNSLIFSNNSHQCWKENESRKPRKKFGRVLRCDTDGLNNIIEERFEEATDFILDS,5.46,-12.9,0.78
"ARB2-M4 (residues His604, His608 and Arg609 mutated to Ala) (domain or fragment) LQKAIRQQQQHYLSDEFNFVTLPLVSMDLPDNTVLCTPNISESNTIIIVVHDTSDIWAKRNVISGTIDLSSSVIIDNSLDFIKWGLDRKYGIIDVNIPLTLFEPDNYSGMITSQEVLIYLWDNYIKYFPSVAKIAFIGIGDSYSGIVALLGAADTRAVTKTVINFLGDKQLKPLVPLVDETLSEWYFKNSLIFSNNSHQCWKENESRKPRKKFGRVLRCDTDGLNNIIEERFEEATDFILDS",17.4,-11.5,0.8

# Now from value to binder:
Kd [µM],dH [kcal/mol],stoichiometry N,Binder
27.7,-11.6,0.74,"ARB2-M3 (residues Val481, Ser482, Met483 and Asp484 mutated to Ala) (domain or fragment) LQKAIRQQQQHYLSDEFNFVTLPLAAAALPDNTVLCTPNISESNTIIIVVHDTSDIWAKRNVISGTIDLSSSVIIDNSLDFIKWGLDRKYGIIDVNIPLTLFEPDNYSGMITSQEVLIYLWDNYIKYFPSVAKIAFIGIGDSYSGIVHLLGHRDTRAVTKTVINFLGDKQLKPLVPLVDETLSEWYFKNSLIFSNNSHQCWKENESRKPRKKFGRVLRCDTDGLNNIIEERFEEATDFILDS"
16.9,-8.9,0.64,ARB2-M2 (residues Tyr468 and Glu472 mutated to Ala) (domain or fragment) LQKAIRQQQQHALSDAFNFVTLPLVSMDLPDNTVLCTPNISESNTIIIVVHDTSDIWAKRNVISGTIDLSSSVIIDNSLDFIKWGLDRKYGIIDVNIPLTLFEPDNYSGMITSQEVLIYLWDNYIKYFPSVAKIAFIGIGDSYSGIVHLLGHRDTRAVTKTVINFLGDKQLKPLVPLVDETLSEWYFKNSLIFSNNSHQCWKENESRKPRKKFGRVLRCDTDGLNNIIEERFEEATDFILDS
